Reference: publication PMC11894141 (EMBO Reports, 2025)

Target: T1, recombinant GST-tagged HSC70 (wild type) (human, UniProt P11142-1 1-646)
T1 construct: HSC70, human HSPA8 cDNA in pGEX-6P-1; also called GST-HSC70; GST-HSC70 WT; source: BL21-Rosetta E. coli, purified (Glutathione Sepharose 4 Fast Flow, eluted with reduced glutathione)
Assay: pull-down; Strep-tagged CSN held on Streptactin Sepharose, HSC70 at a 1:5 ratio, room temperature; with or without 5 µM NR peptide; Coomassie or immunoblot
Details: both partners purified

T1 sequence (P11142 whole entry): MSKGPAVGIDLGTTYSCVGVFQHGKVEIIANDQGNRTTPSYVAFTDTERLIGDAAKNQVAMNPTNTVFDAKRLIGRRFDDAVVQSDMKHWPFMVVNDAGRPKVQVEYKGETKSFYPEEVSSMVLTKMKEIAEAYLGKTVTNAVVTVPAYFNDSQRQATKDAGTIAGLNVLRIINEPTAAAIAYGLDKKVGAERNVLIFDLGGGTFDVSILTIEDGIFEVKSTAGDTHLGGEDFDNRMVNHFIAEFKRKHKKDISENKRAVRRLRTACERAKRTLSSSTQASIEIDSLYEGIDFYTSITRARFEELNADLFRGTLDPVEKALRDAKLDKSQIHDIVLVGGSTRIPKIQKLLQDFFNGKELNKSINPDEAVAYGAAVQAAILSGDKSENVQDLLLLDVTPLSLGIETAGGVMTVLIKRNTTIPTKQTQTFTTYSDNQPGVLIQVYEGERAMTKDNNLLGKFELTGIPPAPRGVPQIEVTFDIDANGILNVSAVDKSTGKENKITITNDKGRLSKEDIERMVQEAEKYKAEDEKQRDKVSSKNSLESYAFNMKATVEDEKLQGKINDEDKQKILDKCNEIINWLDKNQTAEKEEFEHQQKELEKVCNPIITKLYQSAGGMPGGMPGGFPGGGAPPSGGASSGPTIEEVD

B1: NR peptide (an HSC70 model substrate) (peptide)
peptide: NRLLLTGC
notes: NR peptide, HSC70 model substrate (Xu et al, 2012)
Does B1 bind?
Result: binds
